Measured values from the nanobody polyreactivity screen of Harvey et al. (2022).

Assay: yeast display, Sf9 membrane polyspecificity reagent, FACS + sequencing; frameworks hold sequencing errors
Summary of the method: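 A nanobody's polyreactivity label depends on the gate it was sorted from. Yeast display cells were stained with 10% biotinylated, detergent-solubilized Sf9 membrane reagent for 1 hour at 4 °C, enriched on streptavidin microbeads and sorted by FACS. The low and high (top ~1%) gates were set on anti-HA fluorescence for expression and streptavidin fluorescence for reagent binding.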

| Sequence | polyreactivity (PSR sort gate) |
| --- | --- |
| QVQLVESGGGLVQAGGSLRLSCASSGIIFYTYAMGWYRQAPGKERELDAAITQTSAPTYYADSVKGRFTISRDNAKNTVYLQMNSLNPEDTAVYYCAAVPSYRVQGGRMYYWGQGTQVTVSS | high polyreactivity |
| QVQLVESGGGLVQAGGSLRLSCASSGISFRRNAMGWYRQAPGKERELVAISTICGSTYYADSVNGRFTIARDNAKNTVYLQMNTLKPEDTAVYYCAAEGKSTGVYLDGGEGFAYDYWGQGTQVTVSS | low polyreactivity |
| QVQLVESGGGLVQAGGSLRLSCASSGITFDKYAMGWYRQAPGKERELVAAINRSGGSTYYADSVKGRFTISRDNAKNTVYLQINSLKPEDTAVYYCAAVKPPDYYYWGQGTQVTVSS | high polyreactivity |
| QVQLVESGGGLVQAGGSLRLSCASSGITFPGNAMGWYRQAPGKERELVAGISDGDSTNYADSVKGRFTISRDNAKNTVYLQMNSLKPEVTAVYYCNAQGTTETSGGGFFRGMDYWGQGTQVTVSS | low polyreactivity |
| QVQLVESGGGLVQAGGSLRLSCASSGITFPNYAMGWSRQAPGNERELVAAISSSGGSTYYADSVKGRFTISRDKAKNTGYLQMNSLKPEDTAVYYCATAINVYPRMDYGYWGQGTQVTVSS | low polyreactivity |
| QVQLVESGGGLVQAGGSLRLSCASSGLIFSIYAMGWYRQAPGKERELVAAIRWSGGSTYYADSVKGRFTISRDNAKNTVYLQMNSLKPEDTADYYCNADITVYVRIYQYNYWGQGTQVTVSS | low polyreactivity |
| QVQLVESGGGLVQAGGSLRLSCASSGLISRRNAMGWYRQAPGKERELVAAISTGSSTNYADSVKGRFTISRDNAKNTVYLQMNSLKPEDTAVYYCAATQYWWSTLGIRDDYWGQGTQVTVSS | low polyreactivity |
| QVQLVESGGGLVQAGGSLRLSCASSGLTFHFYTMGWYRQAPGKERELVASITSGGITYYADSVKGRFTISRDNAKNTVYLQMNSLKPEDTAVYYCAATYQFIYTDFDYWGQGTQVTVSS | high polyreactivity |
| QVQLVESGGGLVQAGGSLRLSCASSGLTFTPNAMGWYRQAPGKEREFVAAITWRGGRTYYADSVKGRFTISRDNAKNTVYFQMKSLNPEDTAVYYCAVTYRPTYQLDYWGQGTQVTVSS | high polyreactivity |
| QVQLVESGGGLVQAGGSLRLSCASSGNIFVPNAMGGYRQAPGKERELVAAIRRGGSTNYADSVKGRFTISRDNAQNTVDGQMNSLKPEDTAVYYCAKSRVSFTDLEGYYWGQGTQVTVSS | low polyreactivity |
| QVQLVESGGGLVQAGGSLRLSCASSGRIFGLYAMGWYRQAPGKERELVAAITLSGDGTDYADSVKGRFTISRDNAKNTVYLQMNSLKPEDTAVYYCAKVGQYWWNMDYWGQGTQVTVSS | low polyreactivity |
| QVQLVESGGGLVQAGGSLRLSCASSGRIFLVYAMGWYRQAPGKERELVAAISYSGGRTYYADSVKGRFTISRDNAKNTVYLQMNSLKPEDTAVYYCAAKRITYYGGGRFYYWGQGTQVTVSS | high polyreactivity |
| QVQLVESGGGLVQAGGSLRLSCASSGRIFLYNAMGWYRQAPGKERELVAVISYGGGTYYADSVKGRFTISRDNAKNTVYLQMISLKPEDSAVYYCAAEKYSSSRYWPYNYWGQGTQVTVSS | high polyreactivity |
| QVQLVESGGGLVQAGGSLRLSCASSGRNFTRNTMGWYRQAPGKERELVAAISGRGGSTYYADSVKGRFTISRDNAMKTVYLQMNSLKPEDTAVDYCAADGVYRGGYDYWGQGTQVTVSS | high polyreactivity |
| QVQLVESGGGLVQAGGSLRLSCASSGRSLSVYAMGRYRQAPGKERDLVADITWRGGSTYYADSVKGRFTISRDNAKNTVYLQMNSLKPEDTAVYYCAAADSTWFDWGNYWYYYWGQGTQVSVSS | low polyreactivity |
| QVQLVESGGGLVQAGGSLRLSCASSGRTFLVNAMGSYRPAPGKERELVAAISQSGGSTYYADSVKGRFTISRDNAKNTVYLQMNCLKPVDTEVYYCAAELINDYYWGQGTQVSVSS | low polyreactivity |
| QVQLVESGGGLVQAGGSLRLSCASSGRTFRGYVMGWYRQAPGKERELVASISYSGGSTYYADSVKGRFTISRDNAKNTVYLQMNSLKPEDTAVYYCAARKGYDQYRWRYSQNNYWGQGTQVTVSS | high polyreactivity |
| QVQLVESGGGLVQAGGSLRLSCASSGRTFYYYAIGWYRQSPGKETELVAVIRSSGDSTYYADSVKGRFTISRDNAKNTVSLQMNSLKPEDNAVYYCAAEAPSRCYSWHPRYYFWGQGTQVTVSS | low polyreactivity |
| QVQLVESGGGLVQAGGSLRLSCASSGSIFFLYTMGWYRQAPGKERELVAAIDSGGSTNYADSVKGRFTISRDNAKNTVYLQMNSLKPEDTAVYYCNADGGYYYPYRGYHKYYYWGQGTQVTVSS | low polyreactivity |
| QVQLVESGGGLVQAGGSLRLSCASSGSIFYQNAMGWYRQAPGKEREFVAAIRSSGSSTYYADSVKGRFTISRDNAKNTVYLQMNSLKPEDTAVYYCAAPSSRGQGRNFDYWGQGSQVTVSS | high polyreactivity |
| QVQLVESGGGLVQAGGSLRLSCASSGSIFYRNTMGWYRQAPGKEREFVAAIRTSGGSTYYADSVKGRFTISRDNAKNTVYLQMNSLKPEDTAVYYCAAEYRYGWAYRKGGDYWGQGTQVTVSS | high polyreactivity |
| QVQLVESGGGLVQAGGSLRLSCASSGSIIVVYGMGWYRQAPGKERELVAAISGGITNYADSVKGRFTISRDNAMNTVYLQMNILIPEDTAVYYCATVDGAYQYTYDYWGQGTQVTVSS | low polyreactivity |

| Sequence | polyreactivity (PSR sort gate) |
| --- | --- |
| QVQLVESGGGLVQAGGSLRLSCASSGSTFAYYVMGRYIHAPGKEWELVAAISRGGRTYYADSVKGRFTISRDNAKNTVYFQLNSLKPEDTAVYYCAAEGASLAKYDYCGQGTQVTVSS | low polyreactivity |
| QVQLVESGGGLVQAGGSLRLSCASSGSTFKRYAMGWYRQAPGKERELVAAITLSGGNTYYADSVKGRFTISRDTAKNTVYLQLNSLKPEDTAVYYCAARRYRGYDYWGQGTQVTVTS | high polyreactivity |
| QVQLVESGGGLVQAGGSLRLSCASSGSTFKYYAMGWYRQSPGKERELVAAISGTGGSTYYADSVKGRFTISRDNAKNTVYLQMNCLKPEDTAVYYCNTYPYIRYDYWGQGTQVTVSS | high polyreactivity |
| QVQLVESGGGLVQAGGSLRLSCASSGSTFPEYAMGWYRQAPGKERELVAVISFGDGNTYYADSVKGRFTISRDNAKNTVYLQMNSLKPEDTAVYYCNAADDSVDQSVRTLRQYEYWGQGTQVTVSS | low polyreactivity |
| QVQLVESGGGLVQAGGSLRLSCASSGSTFPSNAMGWYRQAPGKERELVAAISRSGGSTYYADSVKGRFTISRDTAKNTVYLQMNSLKPEDTAVYYCAVQVRPNSGGTRIHRCGYDYWGQGTQVTVSS | low polyreactivity |
| QVQLVESGGGLVQAGGSLRLSCASSGSTFRLYAMGWYRQAPGKERELVATISTSGGRTYYADSVKGRLTISRDNAKNTVYLQMNSLKPEDTAVYYCAAYRGTLLTAYDYWGQGTQVTVSS | low polyreactivity |
| QVQLVESGGGLVQAGGSLRLSCASSGSTFRRNAMGWYRQAPGKERELVAAITWRGTSTYYADSVKGRFTISRDNAKNTVYLQMNSLKPEDTAVYYCNAVYNPYTTYSLSAYDYWGQGTQVTVSS | high polyreactivity |
| QVQLVESGGGLVQAGGSLRLSCASSGSTFSYYAMGWYRQATGKERELVAGITTNGGRTFYADSVKGRFTISRDNAKNTVYLQMNSLKPEDTAVYYCNARHGRHRRTRSYYWGQGTQVTVSS | high polyreactivity |
| QVQLVESGGGLVQAGGSLRLSCASSGSTLEVNAMGWYRQAPGKERELVAAITSGCSTNYADSVKGRFTISRDNAKNTVYLQMNSLKPEDTAVYYCNALAYYGMDYWGQGTQVTVSS | low polyreactivity |
| QVQLVESGGGLVQAGGSLRLSCASSGYIFEKYAMGWYRQAPGKERELVAAITVTGASTYYADSVKGRFTISRDNAKNTVYLQMNSMNPEDTAVYYCAAKTLSVGYVDPDYGRDYWGQGTQVTVSS | low polyreactivity |
| QVQLVESGGGLVQAGGSLRLSCASSGYIIIIYAMGWYRQAPGKERELVAAINRRGGSTYYADSVKGRFTISRDNAKNTVYLQMNSLKREDTEVYYCNAYPYFSRGPHLYDYWGQGTQVTGSS | high polyreactivity |
| QVQLVESGGGLVQAGGSLRLSCASSVRTLAYNSRGCYRQATGKERELVASITSGGSTNYADSVKGRFTISRDNAKNTVYLQMNSLKPEDTAVYYCNKDGKYHRVLYDYWGQGTQVTVSS | low polyreactivity |
| QVQLVESGGGLVQAGGSLRLSCASTGRIFDRNAMGWYRQAPGKVRELVAAISRRGGSTYYADSVKGRFTISRDNAKNNVYLQMNILKPEDTAVYYCNSGYSTRLHDYWGQGTQVTVSS | high polyreactivity |
| QVQLVESGGGLVQAGGSLRLSCASYGYIFWSYAMGWYRQAPGKERELVAAISASGGRTYYADSVKGRFTISRDNAKNTVYLQMNSLKPEDTAVYYCNADPGNHAYWYYGEFYYYTYDYWGQGTQVTVSS | low polyreactivity |
| QVQLVESGGGLVQAGGSLRLSCATSGRIFGTNAMGWYRQAPGKERELVADITSGGSTNYADSVKGRFTISRDNAKNTVYVQMNSLKPEDTAVYYCAADVIGDLRWYRDEYWGQGTQVTVSS | low polyreactivity |
| QVQLVESGGGLVQAGGSLRLSCAYSGLTFTWYAMGWYRQAPGKERELVAGISSGTSTNYADSVKGRFSISRDTAKNTVYLQMNSMKAEATAVYYCNAKQLGKFDYWGQGTHVTVSS | low polyreactivity |
| QVQLVESGGGLVQAGGSLRLSCCATGSIFYSYVMGWYRQAPGKEREWFAAISRNGQSTYYADSVKGRFTISLDNAKNTVYLQMNSLKPDDTAVYYCAARSRDKYDYWGQGTQVTVSS | high polyreactivity |
| QVQLVESGGGLVQAGGSLRLSCDASGFIFYGYVMGWYRQAPGKERELVAAITIGGSTNYADSVKGRFTISRDNAKNTVYLQRNSLKPEDTAVYYCAADQRSVTVGMDSWGQGTQVTVSS | low polyreactivity |
| QVQLVESGGGLVQAGGSLRLSCDASGFTFYGYAMGWYRQAPGKERELVAAISGNGARTYYADSVKGRFTISRDNAKNTVYLQMNSLKPEDTAVYYCNADPATWWRNKEDYWGQGTQVTVSS | high polyreactivity |
| QVQLVESGGGLVQAGGSLRLSCDASGFTFYYYTMGWYRQAPGKERELVAAITWRGGSTNYADSVKGRFTISRDNAKNTVYVQMNSLKPEDTAVYYCAAVTYWFWPGMDYWGQGTQVTVSS | low polyreactivity |
| QVQLVESGGGLVQAGGSLRLSCDASGFTVVIYTMGWYRQAPGKERELVAAINWSGASTYYADSVKGRFTISRDNAKNTVYLQINSLKPEDTAVYYCNRVYVQQDFPYKIYPYNYWGQGTQVTVSS | high polyreactivity |
